In IntAct's records for PubMed 36931259:

B1: Serine/arginine-rich splicing factor 10 (Homo sapiens), O75494 (parent)
chain: MSRYLRPPNTSLFVRNVADDTRSEDLRREFGRYGPIVDVYVPLDFYTRRPRGFAYVQFEDVRDAEDALHNLDRKWICGRQIEIQFAQGDRKTPNQMKAKEGRNVYSSSRYDDYDRYRRSRSRSYERRRSRSRSFDYNYRRSYSPRNSRPTGRPRRSRSHSDNDRFKHRNRSFSRSKSNSRSRSKSQPKKEMKAKSRSRSASHTKTRGTSKTDSKTHYKSGSRYEKESRKKEPPRSKSQSRSQSRSRSKSRSRSWTSPKSSGH
partner: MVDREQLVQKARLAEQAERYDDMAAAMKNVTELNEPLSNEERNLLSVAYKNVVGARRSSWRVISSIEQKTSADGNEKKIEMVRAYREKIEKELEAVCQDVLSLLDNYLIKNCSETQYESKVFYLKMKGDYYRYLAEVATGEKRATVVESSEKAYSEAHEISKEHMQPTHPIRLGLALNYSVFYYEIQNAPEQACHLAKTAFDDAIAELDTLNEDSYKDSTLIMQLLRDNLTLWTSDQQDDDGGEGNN
B2: 14-3-3 protein sigma (Homo sapiens), P31947 (parent)
chain: MERASLIQKAKLAEQAERYEDMAAFMKGAVEKGEELSCEERNLLSVAYKNVVGGQRAAWRVLSSIEQKSNEEGSEEKGPEVREYREKVETELQGVCDTVLGLLDSHLIKEAGDAESRVFYLKMKGDYYRYLAEVATGDDKKRIIDSARSAYQEAMDISKKEMPPTNPIRLGLALNFSVFHYEIANSPEEAISLAKTTFDEAMADLHTLSEDSYKDSTLIMQLLRDNLTLWTADNAGEEGGEAPQEPQS
partner: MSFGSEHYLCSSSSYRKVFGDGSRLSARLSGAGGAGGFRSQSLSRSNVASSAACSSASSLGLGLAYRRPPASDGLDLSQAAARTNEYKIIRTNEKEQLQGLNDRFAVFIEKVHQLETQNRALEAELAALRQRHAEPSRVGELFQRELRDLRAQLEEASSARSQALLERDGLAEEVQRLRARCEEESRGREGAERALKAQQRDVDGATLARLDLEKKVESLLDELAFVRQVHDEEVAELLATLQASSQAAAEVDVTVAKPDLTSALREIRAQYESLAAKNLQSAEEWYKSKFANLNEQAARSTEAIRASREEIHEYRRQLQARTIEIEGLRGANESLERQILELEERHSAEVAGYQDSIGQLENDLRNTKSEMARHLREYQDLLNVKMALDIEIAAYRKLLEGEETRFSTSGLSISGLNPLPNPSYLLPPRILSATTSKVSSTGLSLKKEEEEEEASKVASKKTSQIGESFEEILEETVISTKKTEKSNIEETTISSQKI
B3: 14-3-3 protein sigma (Homo sapiens), P31947 (parent)
chain: B2 chain
partner: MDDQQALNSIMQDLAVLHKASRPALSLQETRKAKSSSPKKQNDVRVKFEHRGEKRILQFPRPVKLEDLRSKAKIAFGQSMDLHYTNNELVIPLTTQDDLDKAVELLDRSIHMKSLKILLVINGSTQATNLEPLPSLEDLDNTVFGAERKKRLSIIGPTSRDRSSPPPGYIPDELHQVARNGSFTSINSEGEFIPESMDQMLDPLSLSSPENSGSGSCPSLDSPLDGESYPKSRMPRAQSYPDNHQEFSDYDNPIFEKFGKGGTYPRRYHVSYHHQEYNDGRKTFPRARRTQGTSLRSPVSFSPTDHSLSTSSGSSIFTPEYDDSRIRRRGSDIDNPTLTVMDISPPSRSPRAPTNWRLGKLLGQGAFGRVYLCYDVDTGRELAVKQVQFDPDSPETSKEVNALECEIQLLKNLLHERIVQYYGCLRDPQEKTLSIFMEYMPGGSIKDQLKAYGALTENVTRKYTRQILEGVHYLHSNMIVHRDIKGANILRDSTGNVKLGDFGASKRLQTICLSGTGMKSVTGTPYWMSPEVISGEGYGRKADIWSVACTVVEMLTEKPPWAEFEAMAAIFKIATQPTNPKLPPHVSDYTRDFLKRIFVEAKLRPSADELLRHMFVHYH
B4: Glutamate receptor-interacting protein 1 (Homo sapiens), Q9Y3R0-3 (parent)
chain: MIAVSFKCRCQILRRLTKDESPYTKSASQTKPPDGALAVRRQSIPEEFKGSTVVELMKKEGTTLGLTVSGGIDKDGKPRVSNLRQGGIAARSDQLDVGDYIKAVNGINLAKFRHDEIISLLKNVGERVVLEVEYELPPVSVQGSSVIFRTVEVTLHKEGNTFGFVIRGGAHDDRNKSRPVVITCVRPGGPADREGTIKPGDRLLSVDGIRLLGTTHAEAMSILKQCGQEAALLIEYDVSVMDSVATASGPLLVEVAKTPGASLGVALTTSMCCNKQVIVIDKIKSASIADRCGALHVGDHILSIDGTSMEYCTLAEATQFLANTTDQVKLEILPHHQTRLALKGPDHAALVSSSFSPTSMSAYSLSSLNMGTLPRSLYSTSPRGTMMRRRLKKKDFKSSLSLASSTVGLAGQVVHTETTEVVLTADPVTGFGIQLQGSVFATETLSSPPLISYIEADSPAERCGVLQIGDRVMAINGIPTEDSTFEEASQLLRDSSITSKVTLEIEFDVAESVIPSSGTFHVKLPKKHNVELGITISSPSSRKPGDPLVISDIKKGSVAHRTGTLELGDKLLAIDNIRLDNCSMEDAVQILQQCEDLVKLKIRKDEDNSDEQESSGAIIYTVELKRYGGPLGITISGTEEPFDPIIISSLTKGGLAERTGAIHIGDRILAINSSSLKGKPLSEAIHLLQMAGETVTLKIKKQTDAQSASSPKKFPISSHLSDLGDVEEDSSPAQKPGKLSDMYPSTVPSVDSAVDSWDGSAIDTSYGTQGTSFQASGYNFNTYDWRSPKQRGSLSPVTKPRSQTYPDVGLSYEDWDRSTASGFAGAADSAETEQEENFWSQALEDLETCGQSGILRELEEKADRRVSLRNMTLLATIMSGSTMSLNHEAPTPRSQLGRQASFQERSSSRPHYSQTTRSNTLPSDVGRKSVTLRKMKQEIKEIMSPTPVELHKVTLYKDSDMEDFGFSVADGLLEKGVYVKNIRPAGPGDLGGLKPYDRLLQVNHVRTRDFDCCLVVPLIAESGNKLDLVISRNPLASQKSIDQQSLPGDWSEQNSAFFQQPSHGGNLETREPTNTL
partner: B1 partner
B5: 14-3-3 protein sigma (Homo sapiens), P31947 (parent)
chain: B2 chain
partner: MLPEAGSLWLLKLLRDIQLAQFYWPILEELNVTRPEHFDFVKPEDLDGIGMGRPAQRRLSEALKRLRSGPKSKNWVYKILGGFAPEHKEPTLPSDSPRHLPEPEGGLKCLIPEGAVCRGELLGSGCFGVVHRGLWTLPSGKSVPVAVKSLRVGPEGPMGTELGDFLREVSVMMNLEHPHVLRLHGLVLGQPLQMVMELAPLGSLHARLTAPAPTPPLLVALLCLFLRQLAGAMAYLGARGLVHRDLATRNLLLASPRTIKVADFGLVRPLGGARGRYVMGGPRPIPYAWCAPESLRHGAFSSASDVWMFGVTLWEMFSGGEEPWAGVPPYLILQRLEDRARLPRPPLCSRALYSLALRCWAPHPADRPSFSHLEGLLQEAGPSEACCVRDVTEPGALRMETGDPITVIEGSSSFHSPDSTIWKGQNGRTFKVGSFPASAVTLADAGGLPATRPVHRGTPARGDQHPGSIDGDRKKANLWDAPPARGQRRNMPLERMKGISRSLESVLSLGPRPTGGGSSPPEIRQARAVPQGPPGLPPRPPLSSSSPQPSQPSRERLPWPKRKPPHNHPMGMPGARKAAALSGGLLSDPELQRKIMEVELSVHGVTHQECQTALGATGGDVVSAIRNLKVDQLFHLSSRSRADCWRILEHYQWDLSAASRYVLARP
B6: 14-3-3 protein sigma (Homo sapiens), P31947 (parent)
chain: B2 chain
partner: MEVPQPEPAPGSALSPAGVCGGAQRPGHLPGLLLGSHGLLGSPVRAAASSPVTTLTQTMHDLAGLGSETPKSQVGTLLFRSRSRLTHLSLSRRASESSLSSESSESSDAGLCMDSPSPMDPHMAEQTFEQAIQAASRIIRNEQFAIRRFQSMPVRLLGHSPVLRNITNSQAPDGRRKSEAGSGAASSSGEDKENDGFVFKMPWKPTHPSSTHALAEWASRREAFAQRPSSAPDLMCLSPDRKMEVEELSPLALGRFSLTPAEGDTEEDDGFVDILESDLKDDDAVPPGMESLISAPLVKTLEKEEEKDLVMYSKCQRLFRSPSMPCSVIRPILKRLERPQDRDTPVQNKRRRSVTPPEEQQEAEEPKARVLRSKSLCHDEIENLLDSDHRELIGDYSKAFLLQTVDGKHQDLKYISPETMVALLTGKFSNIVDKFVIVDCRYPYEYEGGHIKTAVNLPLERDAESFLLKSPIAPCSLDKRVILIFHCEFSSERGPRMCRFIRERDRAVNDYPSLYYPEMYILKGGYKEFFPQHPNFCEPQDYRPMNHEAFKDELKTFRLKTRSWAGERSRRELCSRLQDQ

Variants of: B1
Settings: with 1433g_human YWHAG

Row | Variant | effect of a mutation on the interaction
1 | S121A;S123A;S131A;S133A;S143A;S158A;S160A;S199A;S201A;S249A;S253A;T255A | disrupting interaction strength

Variants of: B2
Settings: with ainx_human INA

Row | Variant | effect of a mutation on the interaction
2 | K49E;R56E;V178D | decreasing interaction strength

Variants of: B3
Settings: with m3k2_human MAP3K2, Q9Y2U5

Row | Variant | effect of a mutation on the interaction
3 | K49E;R56E;V178D | decreasing interaction strength

Variants of: B4
Settings: with 1433g_human YWHAG

Row | Variant | effect of a mutation on the interaction
4 | T17A;S43A;S901A;T920A | disrupting interaction strength

Variants of: B5
Settings: with tnk1_human TNK1, Q13470

Row | Variant | effect of a mutation on the interaction
5 | K49E;R56E;V178D | decreasing interaction strength

Variants of: B6
Settings: with mpip2_human CDC25B

Row | Variant | effect of a mutation on the interaction
6 | K49E;R56E;V178D | decreasing interaction strength
